Data as given in paper doi:10.1101/2024.11.25.625199.

Biological target: cross-linked CA(M66I) hexamer, CA(A14C/E45C/W184A/M185A) with M66I (HIV-1)
Assay: crystal structure

cross-linked CA(M66I) hexamer, CA(A14C/E45C/W184A/M185A) with M66I (natural protein)
stoichiometry N: 6
